According to US20250144213A1 (UTC THERAPEUTICS SHANGHAI, published 2025):

Target: T1, CD40-Fc recombinant protein (human, UniProt P25942 21-193)
T1 construct: Soluble staining reagent; also called CD40-Fc protein; not shown: Fc part
Test: FACS staining of T cells expressing the anti-CD40 scFv-CD28 fusion with CD40-Fc protein (FIG. 64)

T1 sequence (P25942 21-193 limits assumed): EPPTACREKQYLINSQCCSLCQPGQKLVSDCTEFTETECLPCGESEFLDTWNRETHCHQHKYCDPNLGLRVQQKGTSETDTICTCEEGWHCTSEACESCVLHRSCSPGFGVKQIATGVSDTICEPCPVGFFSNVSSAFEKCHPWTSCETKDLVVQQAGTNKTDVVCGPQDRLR

- binding result: binds
B1: anti-CD40 scFv 40-52 (in LACOSTIM 40-52.28) (scFv)
scFv: QSALTQPPSASGSPGQSVTISCTGTSSDVGAYNFVSWYQQHPGNAPKLIIYDVRKRPSGIPDRFSASKSGNTASLTVSGLQADDEADYYCSSYAGNNNLVFGGGTKLTVLGGGGSGGGGSGGGGSQVQLVQSGAEVKKPGSSVKVSCKASGGTFSSYAISWVRQAPGQGLEWMGMINPSGGTTSYAQKFQGRVTMTRDTSTSTVYMELSSLRPEDTAVYYCARGFRMDQWGQGTLVTVSS
notes: Tested on T cells as part of the LACOSTIM 40-52.28 (scFv fused with CD28), co-electroporated with the anti-Her2 CAR 4D5.BBZ; also called 40-52 scFv
